Where “and” joins values, the source holds several entries; their conditions need not be identical. Equal entries are not always repeated.
Conditions: Rattus norvegicus, pH 7.4, Thermal, DSC, EDTA 10 mM, NaCl 0.20 M, transition: 2, reversible: yes, whole UniProt chain shown

B1: Parvalbumin alpha wild type, P02625 (protein)
chain: MSMTDLLSAEDIKKAIGAFTAADSFDHKKFFQMVGLKKKSADDVKKVFHILDKDKSGFIEEDELGSILKGFSSDARDLSAKETKTLMAAGDKDGDGKIGVEEFSTLVAES
unfolding enthalpy (calorimetric) (25 °C): 70 kcal/mol and 75 kcal/mol
unfolding enthalpy (van 't Hoff) (25 °C): 71 kcal/mol and 74 kcal/mol
unfolding free energy (25 °C): 3.5 kcal/mol and 4.7 kcal/mol
Tm: 53.6 °C
unfolding enthalpy (calorimetric): 75 kcal/mol
unfolding enthalpy (van 't Hoff): 74 kcal/mol

From FireProtDB (doi:10.1016/s0014-5793(98)01666-4)
